Here are results for two molecules from paper PMC3790011, “Transcription Factor Reb1p Regulates DGK1-encoded Diacylglycerol Kinase and Lipid Metabolism in Saccharomyces cerevisiae*”.

For series [1], the target named is T1, Reb1p (His6-Reb1p) (Saccharomyces cerevisiae RS453, UniProt P21538 1-810).
T1 sequence: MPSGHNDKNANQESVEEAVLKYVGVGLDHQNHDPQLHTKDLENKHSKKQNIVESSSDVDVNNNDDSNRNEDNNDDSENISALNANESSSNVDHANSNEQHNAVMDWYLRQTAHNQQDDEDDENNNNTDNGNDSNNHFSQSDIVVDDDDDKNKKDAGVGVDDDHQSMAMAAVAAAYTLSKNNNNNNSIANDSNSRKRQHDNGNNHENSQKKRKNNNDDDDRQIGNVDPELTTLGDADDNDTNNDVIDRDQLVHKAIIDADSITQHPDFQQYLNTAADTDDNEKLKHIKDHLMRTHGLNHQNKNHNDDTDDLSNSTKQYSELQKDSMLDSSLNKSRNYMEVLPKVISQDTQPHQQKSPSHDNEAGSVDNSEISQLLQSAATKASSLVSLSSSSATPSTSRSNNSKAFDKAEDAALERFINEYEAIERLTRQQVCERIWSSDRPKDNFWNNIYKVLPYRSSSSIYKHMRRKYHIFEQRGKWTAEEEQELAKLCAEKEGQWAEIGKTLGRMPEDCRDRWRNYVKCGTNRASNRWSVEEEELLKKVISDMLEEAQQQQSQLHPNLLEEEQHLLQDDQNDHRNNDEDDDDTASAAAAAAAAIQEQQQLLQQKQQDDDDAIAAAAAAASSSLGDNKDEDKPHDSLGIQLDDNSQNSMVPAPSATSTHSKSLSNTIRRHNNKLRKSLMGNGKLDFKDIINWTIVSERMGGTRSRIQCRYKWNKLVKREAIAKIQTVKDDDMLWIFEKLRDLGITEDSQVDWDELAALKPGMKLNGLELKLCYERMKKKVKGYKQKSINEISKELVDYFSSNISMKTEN
The series is described as follows: EMSA; 10 mM Mg2+; 0.2-1.0 ug Reb1p, 4 pmol probe; 10 mM Tris-HCl pH 8.0, 10 mM MgCl2, 50 mM KCl, 1 mM DTT, 0.025 mg/ml poly(dI-dC), 0.2 mg/ml BSA, 0.04% IGEPAL CA-630, 10% glycerol; 15 min, room temperature; 5% PAGE in 0.5x TBE. The note with it: protein: recombinant; tags: N-terminal His6 (pET-15b); label: 32P (alpha-32P dTTP, Klenow); blunt. On the technique in general: In EMSA bound probe runs differently from free probe, usually more slowly.

For series [2], the target named is T1, Reb1p (His6-Reb1p). The series is described as follows: competition; 10 mM Mg2+; 0.5 ug Reb1p, 4-16 pmol unlabeled competitor against 4 pmol labeled wild type probe; 10 mM Tris-HCl pH 8.0, 10 mM MgCl2, 50 mM KCl, 1 mM DTT, 0.025 mg/ml poly(dI-dC), 0.2 mg/ml BSA, 0.04% IGEPAL CA-630, 10% glycerol; 15 min, room temperature; 5% PAGE in 0.5x TBE. The following applies: protein: recombinant; tags: N-terminal His6 (pET-15b); blunt.

B1: DGK1 promoter Reb1p site wild type (dsDNA)
DNA 1: AGGGTCCATAGCGGGTAACAAATTATTGG
DNA 2: CCAATAATTTGTTACCCGCTATGGACCCT
Regarding B1, the binding result with Reb1p (His6-Reb1p) [1] is reported as “binds”.

B2: unlabeled DGK1 wild type competitor (dsDNA)
DNA 1: AGGGTCCATAGCGGGTAACAAATTATTGG
DNA 2: CCAATAATTTGTTACCCGCTATGGACCCT
B2: the binding result with Reb1p (His6-Reb1p) [2] is “binds”.
